{"source": "paper PMC9864105", "target": "recombinant HIV-1 RTIN (reverse transcriptase and integrase in fusion form, the Pol precursor intermediate) (HIV-1 (NL4-3))", "test": "SEC", "data": [{"substance": "recombinant HIV-1 RTIN (reverse transcriptase and integrase in fusion form, the Pol precursor intermediate) (enzyme)", "values": [{"measurement": "share of rRTIN in the hexamer or higher multimer", "result": 80, "unit": "%"}]}]}
